The values that follow come from patent publication US20250043290A1, “RNA SEQUENCES THAT INDUCE FLUORESCENCE OF SMALL MOLECULE FLUOROPHORES, MOLECULAR COMPLEXES, SENSORS, AND METHODS OF USE THEREOF” (CORNELL UNIVERSITY, priority 2021, published 2025).

A short description of series [1]: Kd measurements for Broccoli and Squash binding to BI. Particulars: 50 nM RNA. How it is done:
(§1) FIGS. 7A-7H provide photophysical and biophysical characterization of Squash. […] Excess RNA was used to ensure binding of nearly all fluorophore. […] Data represent mean values±s.d. for n=3 independent experiments. […] The fluorescence signal trace was fitted with a monoexponential curve to extract kobs. kobs was plotted as a function of total RNA (50 nM RNA) and fluorophore concentration. kon and koff were extracted as the slope and intercept, respectively. Squash koff (0.014±0.008 s^−1) is very similar to that of Corn (0.018±0.002 s^−1). kon for Squash-DFHO (162300±8100 M^−1 s^−1) is seven-times higher than Corn-DFHO (23000±3000 M^−1 s^−1) which could be due to the high folding of Squash. […]
(§2) Dissociation constants (Kd) for the RNA-fluorophore complexes were determined as described previously (Paige et al., “RNA Mimics of Green Fluorescent Protein,” Science 333:642-646 (2011) and Filonov et al., “Broccoli: Rapid Selection of an RNA Mimic of Green Fluorescent Protein by Fluorescence-Based Selection and Directed Evolution,” J. Am. Chem. Soc. 136: 16299-16308 (2014), which are hereby incorporated by reference in their entirety). In brief, the RNA aptamer at a fixed concentration (50 nM) was titrated with increasing fluorophore concentration and the resulting increase in fluorescence was recorded. […]

A short description of series [2]: Dissociation constant of RNA-fluorophore complex, titration with DFHBI-1T. It counts as binding. Particulars: 50 nM RNA, one-site saturation model. How it is done: as §1, §2
Series [3] is described as follows: Potassium-dependence assay. Format: physicochemical. To be noted: buffers with K+, Na+ or Li+. On the procedure: For potassium-dependence assay, separate buffers were prepared for K^+, Na^+ and Li^+. HEPES solution was neutralized with KOH, NaOH or LiOH to generate a 1 M solution (pH 7.4). RNA (1 μM final) was diluted in a buffer containing 40 mM HEPES (pH 7.4) and 0.5 mM MgCl2. Then the salts (KCl, NaCl or LiCl) were added to a final concentration of 100 mM to the corresponding solutions. Finally, DFHBI-1T or DFHO was added to the RNA solution at a final concentration of 10 μM and incubated for 20 minutes. The fluorescence was measured on a FluoroMax-4 fluorimeter.

Series [4] can be described thus: Fluorescence activation of DFHBI-1T by aptamers in vitro. It counts as biochemical. The text has this:
FIG. 1A is a schematic illustrating the strategy for evolution of the add A-riboswitch aptamer. Indicated are helices P1-P3, junctional strands (J1/2, J2/3, J3/1), kissing loop (gray lines), and adenine interactions with the aptamer (dotted line) (5′-CUUCAUAUAAUCCUAAUGAUAUGGUUUGGGAGUUUCUACCAAGAGCCUUAAACUCUUGAUUAUGAAG-3′ (SEQ ID NO:36)). The chemical structure of adenine and fluorophores are shown. Three regions (Region 1: 5′-UAU AAU-3′ (SEQ ID NO:37)), Region 2: 5′-AGU UUC UAC C-3′ (SEQ ID NO:38); Region 3: 5′-GAU UAU-3′ SEQ ID NO:39), which include J1/2, J2/3, and J3/1 were randomized in both size and sequence resulting in a sprouts/clips library for SELEX. Each nucleotide in the colored regions was replaced using a combination of random stochastic deletion (designated “N”) and random stochastic insertion (designated “n”). FIG. 1B is schematic showing a three dimensional structure of the add A-riboswitch aptamer highlighting the adenine-binding pocket (PDB 1Y26). The mutagenized regions are shown in the same color as FIG. 1A. Adenine is indicated by the arrow. FIG. 1C is a schematic illustrating the evolution of the add A-riboswitch aptamer into Squash, a DFHBI-1T-binding aptamer. The sprouts/clips library was selected for binding to DFHBI-conjugated agarose resulting in aptamer 9-1. Aptamer 9-1 was subjected to two consecutive rounds of directed evolution generating DE2-6. A pair of mutations was introduced in DE2-6 to strengthen the kissing loop interaction resulting in Squash. FIG. 1D is a graph showing fluorescence activation of DFHBI-1T by different aptamer intermediates that led to Squash. The values inside the bars indicate fold-activation of DFHBI-1T fluorescence by the corresponding aptamer. Data represent mean values±s.d. for n=3 independent experiments. […]
FIG. 6A is a bar graph showing fluorescence activation of DFHO by Squash and its precursors. Fluorescence was measured with 200 nM dye and 10 μM RNA (ex: 495 nm, em: 562 nm, except for Corn; ex: 505 nm, em: 545 nm). […] FIG. 6B is a bar graph showing fluorescence of initial hits after Round 7 of SELEX. In vitro transcribed RNAs from each hit (1 μM final) were mixed with DFHBI-1T (10 μM final) and the fluorescence was measured (ex: 452 nm, em: 503 nm, except for Broccoli; ex: 472 nm, em: 507 nm). […] FIGS. 6C-6D are bar graphs showing fluorescence measurements of the hits with DFHBI-1T after first (FIG. 6C) and second (FIG. 6D) round of directed evolution, measured as in FIG. 6B. […] FIG. 6E is a bar graph showing fluorescence measurements of hits using DFHO after the second round of directed evolution measured as in FIG. 6A. The fluorescence of the hits were normalized against Corn. […] FIG. 6F is a graph showing normalized fluorescence. […] Fluorescence was measured as in FIG. 6A. […]

“Also recorded” adds a separate entry of the source.

B1: Squash: fluorogenic RNA aptamer evolved from the add A-riboswitch aptamer, binds DFHBI-1T and DFHO; SEQ ID NO: 12 (SEQ ID NO: 1) (nucleic acid)
chain: AGGUGAGCCCAAUAAUACGGUUUGGGUUAGGAUAGGAAGUAGAGCCGUAAACUCUCUAAGCG
modifications: RNA, backbone not given here
The term Kd denotes the constant that tells how readily two partners part at equilibrium. Regarding B1, the “Affinity for BI” value in series [1] is reported as “much weaker affinity than Broccoli”. The Kd in series [2] is 0.045 µM. In addition, the “Fluorescence dependence on K+” value in series [3] was “fluorescent in K^+-free buffers; also recorded: not dependent on potassium”. For the same molecule, the “Fold activation of DFHBI-1T fluorescence” value in series [4] is reported as 1064 fold.
